{"source": "patent US20230340151A1", "about": "(Pfizer, published 2023)", "binders": {"B1": {"name": "GUCY2C-1608 (bispecific antibody)", "chain 1": "DIQLTQSPSSLSASVGDRVTITCRASESVDYYGSSLLQWYQQKPGKAPKLLIYAASKLASGVPSRFSGSGSGTDFTLTISSLQPEDFATYYCQQTRKAYTFGQGTKLEIKGGGSGGGGEVQLVESGGGLVQPGGSLRLSCAASGFTFSDYYMTWVRQAPGKGLEWVAFIRNQARGYTSDHNPSVKGRFTISRDNAKNSLYLQMNSLRAEDTAVYYCARDRPSYYVLDYWGQGTTVTVSSGCPPCPAPEAAGAPSVFLFPPKPKDTLMISRTPEVTCVVVDVSHEDPEVKFNWYVDGVEVHNAKTKPREEQYNSTYRVVSVLTVLHQDWLNGKEYKCKVSNKALPAPIEKTISKAKGQPREPQVCTLPPSREEMTKNQVSLWCLVKGFYPSDIAVEWESNGQPENNYKTTPPVLDSDGSFFLYSKLTVDKSRWQQGNVFSCSVMHEALHNHYTQKSLSLSPG", "chain 2": "DIQMTQSPSSLSASVGDRVTITCTSSQSLFNVRSQKNYLAWYQQKPGKAPKLLIYWASTRESGVPSRFSGSGSGTDFTLTISSLQPEDFATYYCKQSYDLFTFGGGTKVEIKGGGGSGGGGEVQLVESGGGLVQPGGSLRLSCAASGFTFSSYWMHWVRQAPGKGLEWIGEIKPSNELTNVHEKFKDRFTISVDKAKNSAYLQMNSLRAEDTAVYYCTRTITTTEGYWFFDVWGQGTLVTVSSGCPPCPAPEAAGAPSVFLFPPKPKDTLMISRTPEVTCVVVDVSHEDPEVKFNWYVDGVEVHNAKTKPREEQYNSTYRVVSVLTVLHQDWLNGKEYKCKVSNKALPAPIEKTISKAKGQPREPQVYTLPPCREEMTKNQVSLSCAVKGFYPSDIAVEWESNGQPENNYKTTPPVLDSDGSFFLVSKLTVDKSRWQQGNVFSCSVMHEALHNHYTQKSLSLSPG", "notes": "also called GUCY2c CD3 bispecific"}}, "key": {"[1]": {"biological_target": "T1, Murine GUCY2C-ECD cleaved (mouse, UniProt Q3UWA6 20-433)", "T1 sequence": "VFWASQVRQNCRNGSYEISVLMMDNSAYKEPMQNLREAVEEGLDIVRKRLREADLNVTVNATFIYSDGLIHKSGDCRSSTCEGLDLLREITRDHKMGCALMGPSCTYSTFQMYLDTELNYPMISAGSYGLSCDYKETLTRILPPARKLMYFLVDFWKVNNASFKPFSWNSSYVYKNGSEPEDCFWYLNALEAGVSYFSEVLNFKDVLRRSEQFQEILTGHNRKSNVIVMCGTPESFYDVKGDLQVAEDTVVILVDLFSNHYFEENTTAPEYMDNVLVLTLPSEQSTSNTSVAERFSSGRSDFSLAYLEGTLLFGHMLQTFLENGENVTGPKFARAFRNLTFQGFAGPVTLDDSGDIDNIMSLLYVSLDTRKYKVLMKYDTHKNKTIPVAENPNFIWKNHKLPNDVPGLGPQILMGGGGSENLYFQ", "assay": "SPR, GUCY2c directly immobilized, 37 C", "procedure": "Human GUCY2c, cyno GUCY2c and mouse GUCY2c were directly immobilized onto three different flow cells of a CM5 Sensor Chip (BR100530, GE Healthcare) surface using an amine coupling kit (BR100050, GE Healthcare) according to the manufacturer's protocol. […] Flow cell 1 was used as a reference flow cell. […] The dissociation was monitored for 400 seconds and the surface was regenerated with 10 mM Glycine pH 2.1. The running and sample buffer was 10 mM HEPES pH 7.4, 0.15 M NaCl, 3 mM EDTA, 0.05% P-20 (HBS-EP+). The data were double referenced. Binding affinities and rate constants were determined by fitting the resulting sensorgram data to a 1:1 Langmuir model in BIACORE™ T200 Evaluation software version 3.0 (GE Healthcare)."}, "GUCY2C_ECD Peptide 67": {"biological_target": "T2, GUCY2C_ECD Peptide 67 (human)", "T2 peptide": "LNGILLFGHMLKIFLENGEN", "assay": "peptide DELFIA ELISA;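 further: epitope mapping using overlapping 20-mer GUCY2C peptides covering residues 1-440, extracellular into transmembrane domain, coated at 20 µg/ml as target antigen and probed with antibodies or GUCY2C-CD3 bispecifics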", "procedure": "(§1) Arrays were reconstituted with acetonitrile to 100 μg/ml and were then further diluted to 20 μg/ml with sodium carbonate/bicarbonate buffer. Purified antibodies or GUCY2c-CD3 bispecifics were then tested by Delfia ELISA for binding to the different peptides using Delfia ELISA methods previously discussed, with diluted peptides used as the target antigen."}, "GUCY2C_ECD Peptide 49": {"biological_target": "T3, GUCY2C_ECD Peptide 49 (human)", "T3 peptide": "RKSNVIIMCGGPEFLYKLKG", "assay": "peptide DELFIA ELISA", "procedure": "as §1"}, "GUCY2C_ECD Peptide 65": {"biological_target": "T4, GUCY2C_ECD Peptide 65 (human)", "T4 peptide": "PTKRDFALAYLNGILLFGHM", "assay": "peptide DELFIA ELISA", "procedure": "as §1"}, "GUCY2C_ECD Peptide 3": {"biological_target": "T5, GUCY2C_ECD Peptide 3 (human)", "T5 peptide": "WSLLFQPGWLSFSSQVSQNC", "assay": "peptide DELFIA ELISA", "procedure": "as §1"}, "GUCY2C_ECD Peptide 15": {"biological_target": "T6, GUCY2C_ECD Peptide 15 (human)", "T6 peptide": "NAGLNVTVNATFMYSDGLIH", "assay": "peptide DELFIA ELISA", "procedure": "as §1"}, "GUCY2C_ECD Peptide 34": {"biological_target": "T7, GUCY2C_ECD Peptide 34 (human)", "T7 peptide": "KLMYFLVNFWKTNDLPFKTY", "assay": "peptide DELFIA ELISA", "procedure": "as §1"}, "GUCY2C_ECD Peptide 4": {"biological_target": "T8, GUCY2C_ECD Peptide 4 (human)", "T8 peptide": "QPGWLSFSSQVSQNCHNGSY", "assay": "peptide DELFIA ELISA", "procedure": "as §1"}, "GUCY2C_ECD Peptide 72": {"biological_target": "T9, GUCY2C_ECD Peptide 72 (human)", "T9 peptide": "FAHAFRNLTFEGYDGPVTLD", "assay": "peptide DELFIA ELISA", "procedure": "as §1"}, "GUCY2C_ECD Peptide 71": {"biological_target": "T10, GUCY2C_ECD Peptide 71 (human)", "T10 peptide": "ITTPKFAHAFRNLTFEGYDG", "assay": "peptide DELFIA ELISA", "procedure": "as §1"}, "GUCY2C_ECD Peptide 73": {"biological_target": "T11, GUCY2C_ECD Peptide 73 (human)", "T11 peptide": "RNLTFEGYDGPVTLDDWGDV", "assay": "peptide DELFIA ELISA", "procedure": "as §1"}, "GUCY2C_ECD Peptide 47": {"biological_target": "T12, GUCY2C_ECD Peptide 47 (human)", "T12 peptide": "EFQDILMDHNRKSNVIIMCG", "assay": "peptide DELFIA ELISA", "procedure": "as §1"}, "GUCY2C_ECD Peptide 85": {"biological_target": "T13, GUCY2C_ECD Peptide 85 (human)", "T13 peptide": "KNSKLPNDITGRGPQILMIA", "assay": "peptide DELFIA ELISA", "procedure": "as §1"}, "GUCY2C_ECD Peptide 10": {"biological_target": "T14, GUCY2C_ECD Peptide 10 (human)", "T14 peptide": "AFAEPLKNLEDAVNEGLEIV", "assay": "peptide DELFIA ELISA", "procedure": "as §1"}, "GUCY2C_ECD Peptide 39": {"biological_target": "T15, GUCY2C_ECD Peptide 39 (human)", "T15 peptide": "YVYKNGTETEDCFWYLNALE", "assay": "peptide DELFIA ELISA", "procedure": "as §1"}, "GUCY2C_ECD Peptide 59": {"biological_target": "T16, GUCY2C_ECD Peptide 59 (human)", "T16 peptide": "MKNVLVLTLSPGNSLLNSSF", "assay": "peptide DELFIA ELISA", "procedure": "as §1"}, "GUCY2C_ECD Peptide 20": {"biological_target": "T17, GUCY2C_ECD Peptide 20 (human)", "T17 peptide": "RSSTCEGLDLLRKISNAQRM", "assay": "peptide DELFIA ELISA", "procedure": "as §1"}, "GUCY2C_ECD Peptide 70": {"biological_target": "T18, GUCY2C_ECD Peptide 70 (human)", "T18 peptide": "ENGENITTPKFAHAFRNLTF", "assay": "peptide DELFIA ELISA", "procedure": "as §1"}, "GUCY2C_ECD Peptide 38": {"biological_target": "T19, GUCY2C_ECD Peptide 38 (human)", "T19 peptide": "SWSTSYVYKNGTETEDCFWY", "assay": "peptide DELFIA ELISA", "procedure": "as §1"}, "GUCY2C_ECD Peptide 18": {"biological_target": "T20, GUCY2C_ECD Peptide 18 (human)", "T20 peptide": "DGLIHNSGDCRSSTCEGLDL", "assay": "peptide DELFIA ELISA", "procedure": "as §1"}, "GUCY2C_ECD Peptide 36": {"biological_target": "T21, GUCY2C_ECD Peptide 36 (human)", "T21 peptide": "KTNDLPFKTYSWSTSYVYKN", "assay": "peptide DELFIA ELISA", "procedure": "as §1"}, "GUCY2C_ECD Peptide 11": {"biological_target": "T22, GUCY2C_ECD Peptide 11 (human)", "T22 peptide": "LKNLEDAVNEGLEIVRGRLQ", "assay": "peptide DELFIA ELISA", "procedure": "as §1"}, "GUCY2C_ECD Peptide 45": {"biological_target": "T23, GUCY2C_ECD Peptide 45 (human)", "T23 peptide": "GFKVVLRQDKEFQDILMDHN", "assay": "peptide DELFIA ELISA", "procedure": "as §1"}, "GUCY2C_ECD Peptide 2": {"biological_target": "T24, GUCY2C_ECD Peptide 2 (human)", "T24 peptide": "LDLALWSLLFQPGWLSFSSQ", "assay": "peptide DELFIA ELISA", "procedure": "as §1"}, "GUCY2C_ECD Peptide 51": {"biological_target": "T25, GUCY2C_ECD Peptide 51 (human)", "T25 peptide": "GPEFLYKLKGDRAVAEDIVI", "assay": "peptide DELFIA ELISA", "procedure": "as §1"}, "GUCY2C_ECD Peptide 56": {"biological_target": "T26, GUCY2C_ECD Peptide 56 (human)", "T26 peptide": "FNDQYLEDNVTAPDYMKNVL", "assay": "peptide DELFIA ELISA", "procedure": "as §1"}, "GUCY2C_ECD Peptide 24": {"biological_target": "T27, GUCY2C_ECD Peptide 24 (human)", "T27 peptide": "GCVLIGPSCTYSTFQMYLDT", "assay": "peptide DELFIA ELISA", "procedure": "as §1"}, "GUCY2C_ECD Peptide 41": {"biological_target": "T28, GUCY2C_ECD Peptide 41 (human)", "T28 peptide": "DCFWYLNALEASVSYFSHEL", "assay": "peptide DELFIA ELISA", "procedure": "as §1"}, "GUCY2C_ECD Peptide 80": {"biological_target": "T29, GUCY2C_ECD Peptide 80 (human)", "T29 peptide": "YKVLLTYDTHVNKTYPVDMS", "assay": "peptide DELFIA ELISA", "procedure": "as §1"}, "GUCY2C_ECD Peptide 89": {"biological_target": "T30, GUCY2C_ECD Peptide 89 (human)", "T30 peptide": "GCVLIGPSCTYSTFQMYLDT", "assay": "peptide DELFIA ELISA", "procedure": "as §1"}, "GUCY2C_ECD Peptide 1": {"biological_target": "T31, GUCY2C_ECD Peptide 1 (human)", "T31 peptide": "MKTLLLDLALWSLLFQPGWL", "assay": "peptide DELFIA ELISA", "procedure": "as §1"}}}
{"binder": "B1", "values": [{"measurement": "Kd", "setting": "[1]", "value": 90.2, "unit": "nM"}, {"measurement": "koff", "setting": "[1]", "value": 0.0116, "unit": "s⁻¹"}, {"measurement": "kon", "setting": "[1]", "value": 129000, "unit": "M⁻¹ s⁻¹"}, {"measurement": "DELFIA TRF", "setting": "GUCY2C_ECD Peptide 67", "value": 93.2}, {"measurement": "DELFIA TRF", "setting": "GUCY2C_ECD Peptide 49", "value": 129}, {"measurement": "DELFIA TRF", "setting": "GUCY2C_ECD Peptide 65", "value": 103}, {"measurement": "DELFIA TRF", "setting": "GUCY2C_ECD Peptide 3", "value": 97.8}, {"measurement": "DELFIA TRF", "setting": "GUCY2C_ECD Peptide 15", "value": 88.8}, {"measurement": "DELFIA TRF", "setting": "GUCY2C_ECD Peptide 34", "value": 99}, {"measurement": "DELFIA TRF", "setting": "GUCY2C_ECD Peptide 4", "value": 125}, {"measurement": "DELFIA TRF", "setting": "GUCY2C_ECD Peptide 72", "value": 116}, {"measurement": "DELFIA TRF", "setting": "GUCY2C_ECD Peptide 71", "value": 105}, {"measurement": "DELFIA TRF", "setting": "GUCY2C_ECD Peptide 73", "value": 116}, {"measurement": "DELFIA TRF", "setting": "GUCY2C_ECD Peptide 47", "value": 104}, {"measurement": "DELFIA TRF", "setting": "GUCY2C_ECD Peptide 85", "value": 163}, {"measurement": "DELFIA TRF", "setting": "GUCY2C_ECD Peptide 10", "value": 105}, {"measurement": "DELFIA TRF", "setting": "GUCY2C_ECD Peptide 39", "value": 86.5}, {"measurement": "DELFIA TRF", "setting": "GUCY2C_ECD Peptide 59", "value": 135}, {"measurement": "DELFIA TRF", "setting": "GUCY2C_ECD Peptide 20", "value": 3210}, {"measurement": "DELFIA TRF", "setting": "GUCY2C_ECD Peptide 70", "value": 91.8}, {"measurement": "DELFIA TRF", "setting": "GUCY2C_ECD Peptide 38", "value": 110}, {"measurement": "DELFIA TRF", "setting": "GUCY2C_ECD Peptide 18", "value": 126}, {"measurement": "DELFIA TRF", "setting": "GUCY2C_ECD Peptide 36", "value": 112}, {"measurement": "DELFIA TRF", "setting": "GUCY2C_ECD Peptide 11", "value": 101}, {"measurement": "DELFIA TRF", "setting": "GUCY2C_ECD Peptide 45", "value": 108}, {"measurement": "DELFIA TRF", "setting": "GUCY2C_ECD Peptide 2", "value": 106}, {"measurement": "DELFIA TRF", "setting": "GUCY2C_ECD Peptide 51", "value": 96.8}, {"measurement": "DELFIA TRF", "setting": "GUCY2C_ECD Peptide 56", "value": 81}, {"measurement": "DELFIA TRF", "setting": "GUCY2C_ECD Peptide 24", "value": 119}, {"measurement": "DELFIA TRF", "setting": "GUCY2C_ECD Peptide 41", "value": 161}, {"measurement": "DELFIA TRF", "setting": "GUCY2C_ECD Peptide 80", "value": 1470}, {"measurement": "DELFIA TRF", "setting": "GUCY2C_ECD Peptide 89", "value": 115}, {"measurement": "DELFIA TRF", "setting": "GUCY2C_ECD Peptide 1", "value": 166}]}
